What all share (details): both partners purified
Experiment [1] has as its target T1, full-length Rrp5 (recombinant) (S. cerevisiae, UniProt Q05022 1-1729).
T1 construct: Rrp5, S. cerevisiae, 193 kDa, 12 S1 domains followed by seven TPR repeats; The His6 tag is named only for the Has1 pull-down (His6-Rrp5, His-Rrp5); I take both to be the one Rrp5-FL preparation; also called Rrp5-FL; Rrp5_FL
As to the kind of experiment: negative-stain single-particle EM reconstruction; 100 pmol Rok1 incubated with Rrp5 in 300 mM NaCl, 10 mM MgCl2, 30 mM MES pH 6.7, 20°C, 2 h; GraFix glycerol/glutaraldehyde gradient; uranyl formate stain.

For experiment [2], the target named is T1, full-length Rrp5 (recombinant). As to the kind of experiment: pull-down; 5 uM FL Rrp5 or Rrp5 fragments with 3 uM GST-Rok1 (or GST) on GSH sepharose; 150 mM NaCl, 30 mM HEPES/NaOH pH 7.5, 5% glycerol; 4°C; eluted with 20 mM reduced glutathione.
For experiment [3] the target is unchanged. Put plainly: pull-down; 10 uM FL Rrp5 or Rrp5_TPR2+7 with 15 uM MBP-Rok1 (or MBP) on amylose resin; 150 mM NaCl, 30 mM HEPES/NaOH pH 7.5, 5% glycerol; 4°C; eluted with 20 mM maltose.
The target is the same in experiment [4]. Put plainly: pull-down; 5 uM Has1 with 3 uM His-Rrp5 on Ni-NTA resin, pull-down buffer, 4°C; eluted with 300 mM imidazole.

This note sets out measurements from publication PMC4900678, “The DEAD-box Protein Rok1 Orchestrates 40S and 60S Ribosome Assembly by Promoting the Release of Rrp5 from Pre-40S Ribosomes to Allow for 60S Maturation” (PLoS Biology, 2016).

T1 sequence (Q05022 whole entry, the tested form may be a part): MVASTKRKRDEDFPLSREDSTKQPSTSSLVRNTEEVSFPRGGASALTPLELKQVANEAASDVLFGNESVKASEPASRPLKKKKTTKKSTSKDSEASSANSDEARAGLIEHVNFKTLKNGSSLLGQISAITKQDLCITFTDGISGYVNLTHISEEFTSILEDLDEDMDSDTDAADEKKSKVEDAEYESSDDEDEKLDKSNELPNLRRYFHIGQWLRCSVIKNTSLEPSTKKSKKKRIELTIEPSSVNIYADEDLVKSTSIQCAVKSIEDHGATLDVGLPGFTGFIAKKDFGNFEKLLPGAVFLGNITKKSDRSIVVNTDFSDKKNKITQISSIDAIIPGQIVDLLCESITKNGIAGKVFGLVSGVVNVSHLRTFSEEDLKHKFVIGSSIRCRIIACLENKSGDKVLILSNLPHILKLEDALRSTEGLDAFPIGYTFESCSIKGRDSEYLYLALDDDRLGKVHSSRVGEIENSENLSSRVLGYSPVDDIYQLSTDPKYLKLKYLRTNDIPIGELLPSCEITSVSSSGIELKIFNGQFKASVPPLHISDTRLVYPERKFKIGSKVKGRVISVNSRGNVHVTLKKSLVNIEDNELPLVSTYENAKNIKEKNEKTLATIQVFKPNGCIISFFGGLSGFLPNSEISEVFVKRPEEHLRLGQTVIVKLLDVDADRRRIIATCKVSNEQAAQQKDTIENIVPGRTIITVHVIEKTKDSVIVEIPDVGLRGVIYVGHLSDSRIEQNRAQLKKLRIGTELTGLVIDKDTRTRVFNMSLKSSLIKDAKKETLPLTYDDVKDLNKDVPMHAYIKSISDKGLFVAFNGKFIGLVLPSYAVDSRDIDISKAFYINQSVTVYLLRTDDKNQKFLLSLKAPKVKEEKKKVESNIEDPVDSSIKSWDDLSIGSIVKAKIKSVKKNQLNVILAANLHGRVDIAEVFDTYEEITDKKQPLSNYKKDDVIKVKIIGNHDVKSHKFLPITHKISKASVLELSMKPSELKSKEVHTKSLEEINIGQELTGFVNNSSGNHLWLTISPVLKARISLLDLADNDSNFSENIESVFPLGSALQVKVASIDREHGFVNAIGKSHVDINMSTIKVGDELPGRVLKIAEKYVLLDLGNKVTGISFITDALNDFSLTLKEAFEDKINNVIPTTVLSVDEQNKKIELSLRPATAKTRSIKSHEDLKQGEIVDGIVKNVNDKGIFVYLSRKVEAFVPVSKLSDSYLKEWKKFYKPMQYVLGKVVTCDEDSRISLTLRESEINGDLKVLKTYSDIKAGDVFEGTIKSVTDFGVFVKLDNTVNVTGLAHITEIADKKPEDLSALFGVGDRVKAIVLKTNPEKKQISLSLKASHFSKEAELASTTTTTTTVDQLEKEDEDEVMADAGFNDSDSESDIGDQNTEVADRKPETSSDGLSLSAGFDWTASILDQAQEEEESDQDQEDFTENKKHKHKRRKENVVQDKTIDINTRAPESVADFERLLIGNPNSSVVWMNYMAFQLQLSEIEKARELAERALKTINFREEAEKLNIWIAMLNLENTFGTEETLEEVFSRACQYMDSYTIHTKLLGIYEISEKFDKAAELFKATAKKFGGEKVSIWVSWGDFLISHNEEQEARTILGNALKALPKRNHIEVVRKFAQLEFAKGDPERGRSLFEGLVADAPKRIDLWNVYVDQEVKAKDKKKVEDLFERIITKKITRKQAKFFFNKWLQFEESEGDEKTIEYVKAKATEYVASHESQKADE

B1: Rok1 (recombinant) (enzyme, S. cerevisiae, UniProt P45818 1-564, looked up)
chain: MDIFRVLTRGASVKKESGPKAKAADYSVINGNDENHKEDNNESQIVKELDFFRNKRIISKVEDDREKTTENDSPNKEEKSGNDDGLIKPVITNTVEASALRKSYKGNVSGIDIPLPIGSFEDLISRFSFDKRLLNNLIENGFTEPTPIQCECIPVALNNRDVLACGPTGSGKTLAFLIPLVQQIIDDKQTAGLKGLIISPTKELANQIFIECFKLSYKIFLEKKRPLQVALLSKSLGAKLKNKVVSDKKYDIIISTPLRLIDVVKNEALDLSKVKHLIFDEADKLFDKTFVEQSDDILSACREPSLRKAMFSATIPSNVEEIAQSIMMDPVRVIIGHKEAANTNIEQKLIFCGNEEGKLIAIRQLVQEGEFKPPIIIFLESITRAKALYHELMYDRINVDVIHAERTALQRDRIIERFKTGELWCLICTDVLARGIDFKGVNLVINYDVPGSSQAYVHRIGRTGRGGRSGKAITFYTKQDSVAIKPIINVMKQSGCEVSEWMDKMAKMTRKEKESIKNGKAHKERKQITTVPKMDKAKRRRQQEMIAASKRRKNEELSKKHFSK
notes: Rok1, DEAD-box protein, 64 kDa; Named Rok1 without a tag, in contrast to MBP-Rok1 and GST-Rok1; also called recombinant Rok1
B1: the binding result in experiment [1] is recorded as “binds”.

B2: glutathione S-transferase (GST)-tagged Rok1 (enzyme, S. cerevisiae, UniProt P45818 1-564, looked up)
chain: MDIFRVLTRGASVKKESGPKAKAADYSVINGNDENHKEDNNESQIVKELDFFRNKRIISKVEDDREKTTENDSPNKEEKSGNDDGLIKPVITNTVEASALRKSYKGNVSGIDIPLPIGSFEDLISRFSFDKRLLNNLIENGFTEPTPIQCECIPVALNNRDVLACGPTGSGKTLAFLIPLVQQIIDDKQTAGLKGLIISPTKELANQIFIECFKLSYKIFLEKKRPLQVALLSKSLGAKLKNKVVSDKKYDIIISTPLRLIDVVKNEALDLSKVKHLIFDEADKLFDKTFVEQSDDILSACREPSLRKAMFSATIPSNVEEIAQSIMMDPVRVIIGHKEAANTNIEQKLIFCGNEEGKLIAIRQLVQEGEFKPPIIIFLESITRAKALYHELMYDRINVDVIHAERTALQRDRIIERFKTGELWCLICTDVLARGIDFKGVNLVINYDVPGSSQAYVHRIGRTGRGGRSGKAITFYTKQDSVAIKPIINVMKQSGCEVSEWMDKMAKMTRKEKESIKNGKAHKERKQITTVPKMDKAKRRRQQEMIAASKRRKNEELSKKHFSK
notes: Rok1, DEAD-box protein; also called GST-Rok1; source: E. coli Rosetta2 (DE3), recombinant; purification not described here
B2: the binding result in experiment [2] is “binds”.

B3: maltose binding protein (MBP)-tagged Rok1 (enzyme, S. cerevisiae, UniProt P45818 1-564, looked up)
chain: MDIFRVLTRGASVKKESGPKAKAADYSVINGNDENHKEDNNESQIVKELDFFRNKRIISKVEDDREKTTENDSPNKEEKSGNDDGLIKPVITNTVEASALRKSYKGNVSGIDIPLPIGSFEDLISRFSFDKRLLNNLIENGFTEPTPIQCECIPVALNNRDVLACGPTGSGKTLAFLIPLVQQIIDDKQTAGLKGLIISPTKELANQIFIECFKLSYKIFLEKKRPLQVALLSKSLGAKLKNKVVSDKKYDIIISTPLRLIDVVKNEALDLSKVKHLIFDEADKLFDKTFVEQSDDILSACREPSLRKAMFSATIPSNVEEIAQSIMMDPVRVIIGHKEAANTNIEQKLIFCGNEEGKLIAIRQLVQEGEFKPPIIIFLESITRAKALYHELMYDRINVDVIHAERTALQRDRIIERFKTGELWCLICTDVLARGIDFKGVNLVINYDVPGSSQAYVHRIGRTGRGGRSGKAITFYTKQDSVAIKPIINVMKQSGCEVSEWMDKMAKMTRKEKESIKNGKAHKERKQITTVPKMDKAKRRRQQEMIAASKRRKNEELSKKHFSK
notes: Rok1, DEAD-box protein; also called MBP-Rok1; source: E. coli Rosetta2 (DE3), recombinant; purification not described here
As for B3, in experiment [3], the binding result is “binds”.

B4: Has1 (recombinant) (enzyme)
chain: not shown
notes: Has1, DEAD-box protein, HAS1 gene cloned from yeast into pSV272 as a TEV-cleavable His6-MBP fusion; also called recombinant Has1; source: E. coli Rosetta2 (DE3), purified (Ni-NTA, MonoS, Superdex S-200)
Take B4: the binding result in experiment [4] is listed as “binds”.
